T1: plasma-derived human activated protein C (APC) (UniProt P04070 43-461)
T1 chain: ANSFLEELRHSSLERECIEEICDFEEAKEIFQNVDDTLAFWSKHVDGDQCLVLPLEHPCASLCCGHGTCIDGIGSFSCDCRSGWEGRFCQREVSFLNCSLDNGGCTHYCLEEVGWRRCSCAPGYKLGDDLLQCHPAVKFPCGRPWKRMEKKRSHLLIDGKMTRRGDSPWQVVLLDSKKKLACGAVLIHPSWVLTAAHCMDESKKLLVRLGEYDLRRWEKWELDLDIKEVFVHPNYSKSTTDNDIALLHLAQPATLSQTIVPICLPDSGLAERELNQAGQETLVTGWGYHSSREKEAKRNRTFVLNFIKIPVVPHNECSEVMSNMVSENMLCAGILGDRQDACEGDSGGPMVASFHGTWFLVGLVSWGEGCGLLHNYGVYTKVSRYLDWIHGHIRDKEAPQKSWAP


Molecular target: T1, plasma-derived human activated protein …
Assay: SPR

Row | Kd [nM] | Binder
1 | 47.9 | TPP-24897 (antibody, V domains shown) VL: EIVLTQSPGTLSLSPGERATLSCRASESVDSFGATFMHWYLQKPGQSPQLLIYLASNLESGVPARFSGSGSGTDFTLKISRVEAEDVGVYYCQQNNEDPYTFGQGTKLEIK
2 | 49 | TPP-24833 (antibody, V domains shown) VL: DIVLTQSPASLAVSPGQRATITCKASESVDSFGATFMHWYLQKPGQSPQLLIYLASNLESGVPARFSGSGSGTDFTLKISRVEAEDVGVYYCQQNNEDPYTFGQGTKLEIK
3 | 45.9 | TPP-24907 (antibody, V domains shown) VL: EIVLTQSPGTLSLSPGERATLSCRASQSVSSFGATFMHWYQQKPGQPPKLLIYLASNRASGVPDRFSGSGSGTDFTLTINPVEADDTANYYCQQNNEDPYTFGQGTKLEIK
4 | 24.1 | TPP-24861 (antibody, V domains shown) VL: DIVMTQSPLSLPVTPGEPASISCRSSESVDSFGATFMHWYQQKPGQPPKLLIYLASNRASGVPDRFSGSGSGTDFTLKISRVEAEDVGVYYCQQNNEDPYTFGQGTKLEIK

Molecular target: T1, plasma-derived human activated protein …
Assay: SPR
Remark: another data set of the same source

Row | Kd [nM] | Binder
5 | 13.8 | TPP-26871 (antibody, V domains shown) VH: EVQLVESGGGLVQPGGSLRLSCAASGFTFSNYYMNWVRQAPGKGLEWVSYISSSSSTIYYADSVKGRFTISRDDSKNSLYLQMNSLKTEDTAVYYCAREGDYFDYWGQGTLVTVSS VL: DIVLTQSPASLAVSPGQRATITCKASQSVSSFGATFMHWYQQKPGQPPKLLIYLASNRASGVPDRFSGSGSGTDFTLTINPVEADDTANYYCQQNNEDPYTFGQGTKLEIKR
6 | 11.2 | TPP-26863 (antibody, V domains shown) VH: EVQLVESGGGLVQPGGSLRLSCAASGFTFSNYYMNWVRQAPGKGLEWVSYISSSSSTIYYADSVKGRFTISRDDSKNSLYLQMNSLKTEDTAVYYCAREGDYFDYWGQGTLVTVSS VL: DIVMTQSPLSLPVTPGEPASISCRSSESVDSFGATFMHWYLQKPGQSPQLLIYLASNRASGVPDRFSGSGSGTDFTLKISRVEAEDVGVYYCQQNNEDPYTFGQGTKLEIKR
7 | 11.2 | TPP-26873 (antibody, V domains shown) VH: EVQLVESGGGLVQPGGSLRLSCAASGFTFSNYYMNWVRQAPGKGLEWVSYISSSSSTIYYADSVKGRFTISRDDSKNSLYLQMNSLKTEDTAVYYCAREGDYFDYWGQGTLVTVSS VL: DIVLTQSPASLAVSPGQRATITCKASQSVSSFGATFMHWYLQKPGQSPQLLIYLASNRASGVPDRFSGSGSGTDFTLKISRVEAEDVGVYYCQQNNEDPYTFGQGTKLEIKR
8 | 12.8 | TPP-26872 (antibody, V domains shown) VH: EVQLVESGGGLVQPGGSLRLSCAASGFTFSNYYMNWVRQAPGKGLEWVSYISSSSSTIYYADSVKGRFTISRDDSKNSLYLQMNSLKTEDTAVYYCAREGDYFDYWGQGTLVTVSS VL: DIVLTQSPASLAVSPGQRATITCKASQSVSSFGATFMHWYLQKPGQSPQLLIYLASNRASGVPDRFSGSGSGTDFTLTINPVEADDTANYYCQQNNEDPYTFGQGTKLEIKR
9 | 13.5 | TPP-26862 (antibody, V domains shown) VH: EVQLVESGGGLVQPGGSLRLSCAASGFTFSNYYMNWVRQAPGKGLEWVSYISSSSSTIYYADSVKGRFTISRDDSKNSLYLQMNSLKTEDTAVYYCAREGDYFDYWGQGTLVTVSS VL: DIVMTQSPLSLPVTPGEPASISCRSSESVDSFGATFMHWYQQKPGQPPKLLIYLASNRASGVPDRFSGSGSGTDFTLKISRVEAEDVGVYYCQQNNEDPYTFGQGTKLEIKR
10 | 18.6 | TPP-26935 (antibody, V domains shown) VH: EVQLVESGGGLVQPGGSLRLSCAASGFTFSNYYINWVRQAPGKGLEWVGDIRLKSNNYEKHYAESVKGRFTISRDDSKNSLYLQMNSLKTEDTAVYYCAREGDYFDYWGQGTLVTVSS VL: EIVLTQSPGTLSLSPGERATLSCRASQSVSSFGATFMHWYQQKPGQPPKLLIYLASNRASGVPDRFSGSGSGTDFTLKISRVEAEDVGVYYCQQNNEDPYTFGQGTKLEIKR
11 | 13.2 | TPP-26874 (antibody, V domains shown) VH: EVQLVESGGGLVQPGGSLRLSCAASGFTFSNYYMNWVRQAPGKGLEWVSYISSSSSTIYYADSVKGRFTISRDDSKNSLYLQMNSLKTEDTAVYYCAREGDYFDYWGQGTLVTVSS VL: DIVLTQSPASLAVSPGQRATITCKASQSVSSFGATFMHWYQQKPGQPPKLLIYLASNRASGVPDRFSGSGSGTDFTLKISRVEAEDVGVYYCQQNNEDPYTFGQGTKLEIKR
12 | 27.5 | TPP-26924 (antibody, V domains shown) VH: EVQLVESGGGLVQPGGSLRLSCAASGFTFSNYYMSWVRQAPGKGLEWVGDIRLKSNNYEKHYAESVKGRFTISRDDSKNSLYLQMNSLKTEDTAVYYCAREGDYFDYWGQGTLVTVSS VL: DIVLTQSPASLAVSPGQRATITCKASQSVSSFGATFMHWYLQKPGQSPQLLIYLASNRASGVPDRFSGSGSGTDFTLTINPVEADDTANYYCQQNNEDPYTFGQGTKLEIKR
13 | 8.79 | TPP-26864 (antibody, V domains shown) VH: EVQLVESGGGLVQPGGSLRLSCAASGFTFSNYYMNWVRQAPGKGLEWVSYISSSSSTIYYADSVKGRFTISRDDSKNSLYLQMNSLKTEDTAVYYCAREGDYFDYWGQGTLVTVSS VL: EIVLTQSPGTLSLSPGERATLSCRASESVDSFGATFMHWYLQKPGQSPQLLIYLASNRASGVPDRFSGSGSGTDFTLKISRVEAEDVGVYYCQQNNEDPYTFGQGTKLEIKR
14 | 19.8 | TPP-26934 (antibody, V domains shown) VH: EVQLVESGGGLVQPGGSLRLSCAASGFTFSNYYINWVRQAPGKGLEWVGDIRLKSNNYEKHYAESVKGRFTISRDDSKNSLYLQMNSLKTEDTAVYYCAREGDYFDYWGQGTLVTVSS VL: EIVLTQSPGTLSLSPGERATLSCRASQSVSSFGATFMHWYQQKPGQPPKLLIYLASNRASGVPDRFSGSGSGTDFTLTINPVEADDTANYYCQQNNEDPYTFGQGTKLEIKR
15 | 27.9 | TPP-26925 (antibody, V domains shown) VH: EVQLVESGGGLVQPGGSLRLSCAASGFTFSNYYMSWVRQAPGKGLEWVGDIRLKSNNYEKHYAESVKGRFTISRDDSKNSLYLQMNSLKTEDTAVYYCAREGDYFDYWGQGTLVTVSS VL: DIVLTQSPASLAVSPGQRATITCKASQSVSSFGATFMHWYLQKPGQSPQLLIYLASNRASGVPDRFSGSGSGTDFTLKISRVEAEDVGVYYCQQNNEDPYTFGQGTKLEIKR
16 | 30.5 | TPP-26926 (antibody, V domains shown) VH: EVQLVESGGGLVQPGGSLRLSCAASGFTFSNYYMSWVRQAPGKGLEWVGDIRLKSNNYEKHYAESVKGRFTISRDDSKNSLYLQMNSLKTEDTAVYYCAREGDYFDYWGQGTLVTVSS VL: DIVLTQSPASLAVSPGQRATITCKASQSVSSFGATFMHWYQQKPGQPPKLLIYLASNRASGVPDRFSGSGSGTDFTLKISRVEAEDVGVYYCQQNNEDPYTFGQGTKLEIKR
17 | 28.1 | TPP-26920 (antibody, V domains shown) VH: EVQLVESGGGLVQPGGSLRLSCAASGFTFSNYYMSWVRQAPGKGLEWVGDIRLKSNNYEKHYAESVKGRFTISRDDSKNSLYLQMNSLKTEDTAVYYCAREGDYFDYWGQGTLVTVSS VL: EIVLTQSPGTLSLSPGERATLSCRASQSVSSFGATFMHWYLQKPGQSPQLLIYLASNRASGVPDRFSGSGSGTDFTLKISRVEAEDVGVYYCQQNNEDPYTFGQGTKLEIKR
18 | 13.4 | TPP-26918 (antibody, V domains shown) VH: EVQLVESGGGLVQPGGSLRLSCAASGFTFSNYYMSWVRQAPGKGLEWVGDIRLKSNNYEKHYAESVKGRFTISRDDSKNSLYLQMNSLKTEDTAVYYCAREGDYFDYWGQGTLVTVSS VL: DIVLTQSPASLAVSPGQRATITCKASESVDSFGATFMHWYQQKPGQPPKLLIYLASNRASGVPDRFSGSGSGTDFTLKISRVEAEDVGVYYCQQNNEDPYTFGQGTKLEIKR
19 | 31.1 | TPP-26921 (antibody, V domains shown) VH: EVQLVESGGGLVQPGGSLRLSCAASGFTFSNYYMSWVRQAPGKGLEWVGDIRLKSNNYEKHYAESVKGRFTISRDDSKNSLYLQMNSLKTEDTAVYYCAREGDYFDYWGQGTLVTVSS VL: EIVLTQSPGTLSLSPGERATLSCRASQSVSSFGATFMHWYQQKPGQPPKLLIYLASNRASGVPDRFSGSGSGTDFTLTINPVEADDTANYYCQQNNEDPYTFGQGTKLEIKR
20 | 169 | TPP-26882 (antibody, V domains shown) VH: EVQLVESGGGLVQPGGSLRLSCAASGFTFSNYYMNWVRQAPGKGLEWVGRIKSKTDGGTTDYAAPVKGRFTISRDDSKNSLYLQMNSLKTEDTAVYYCAREGDYFDYWGQGTLVTVSS VL: EIVLTQSPGTLSLSPGERATLSCRASQSVSSFGATFMHWYQQKPGQPPKLLIYLASNRASGVPDRFSGSGSGTDFTLTINPVEADDTANYYCQQNNEDPYTFGQGTKLEIKR
21 | 142 | TPP-26894 (antibody, V domains shown) VH: EVQLVESGGGLVQPGGSLRLSCAASGFTFSNYYMNWVRQAPGQGLEWMGRIIPILGIANYAQKFQGRFTISRDDSKNSLYLQMNSLKTEDTAVYYCAREGDYFDYWGQGTLVTVSS VL: EIVLTQSPGTLSLSPGERATLSCRASQSVSSFGATFMHWYLQKPGQSPQLLIYLASNRASGVPDRFSGSGSGTDFTLKISRVEAEDVGVYYCQQNNEDPYTFGQGTKLEIKR
22 | 13.5 | TPP-26869 (antibody, V domains shown) VH: EVQLVESGGGLVQPGGSLRLSCAASGFTFSNYYMNWVRQAPGKGLEWVSYISSSSSTIYYADSVKGRFTISRDDSKNSLYLQMNSLKTEDTAVYYCAREGDYFDYWGQGTLVTVSS VL: EIVLTQSPGTLSLSPGERATLSCRASQSVSSFGATFMHWYQQKPGQPPKLLIYLASNRASGVPDRFSGSGSGTDFTLTINPVEADDTANYYCQQNNEDPYTFGQGTKLEIKR

Source: patent US20250188189A1 (published 2025)
